From article doi:10.1101/2021.08.27.457910 come the findings set out here.

For experiment [1], the target named is Sgo1_(1-130) (human) (UniProt Q5FBB7). Nature of the experiment: ITC. In general terms: ITC needs no label: the signal is the heat of the interaction.
In experiment [2] the target is Sgo1_(1-415) (human) (UniProt Q5FBB7). Nature of the experiment: ITC.
The target is the same in experiment [3]. Description: mass photometry.

A word on the Kd: it is the constant that tells how readily two partners part at equilibrium. A higher Kd goes with lower affinity. In experiment [1], “Survivin (from UniProt O15392 1-142) (natural protein)” registered a Kd of 0.255 µM.
For orientation: stoichiometry N means the number of molecules, sites or subunits per partner or assembly. For the substance “CPC_(ISB10-280) (INCENP_(1-58), Survivin full length and Borealin_(10-280)) (from UniProt Q9NQS7 1-58; O15392 1-142; Q53HL2 10-280) (complex)”, in experiment [2], the Kd was determined as 0.053 µM, the dH is -6.58 kcal/mol and the stoichiometry N came out at 1. This substance also gave a Kd in experiment [1] of 0.057 µM.
Turning to “Sgo1_(1-415) (from UniProt Q5FBB7 1-415) (domain or fragment)”, the stoichiometry N in experiment [3] worked out at 2.
“CPC_(ISB10-221) (INCENP_(1-58), Survivin and Borealin_(10-221)) (from UniProt Q9NQS7 1-58; O15392 1-142; Q53HL2 10-221) (complex)” yielded a Kd in experiment [1] of 0.163 µM.
